# B1: MTC-424 (dsDNA)
# DNA 1: GTACATGCGCTCCAGA
# DNA 2: TCTGGAGCGCATGTAC
# modifications: 5-aza-5,6-dihydro-dC at 8 of F strand; phosphodiester [F strand: 8]
# B2: MTC-433 (structured_DNA)
# DNA: CCTATGCGATCGAGTTTTCTCGATCGCATAGG
# modifications: 5mC at 7 and 11; deoxy-zebularine at 21 and 25; PS backbone [7,11,21,25]
# B3: MTC-423 (structured_DNA)
# DNA: B2 DNA
# modifications: zebularine (pyrimidin-2-one ribonucleoside) at 21 and 25; phosphodiester [21,25]
# B4: MTC-425 (MTC-422m) (structured_DNA)
# DNA: B2 DNA
# modifications: 5mC at 7 and 11; 5-aza-5,6-dihydro-dC at 21 and 25; phosphodiester [7,11,21,25]
# B5: MTC-427 (MTC-423m) (structured_DNA)
# DNA: B2 DNA
# modifications: 5mC at 7 and 11; zebularine (pyrimidin-2-one ribonucleoside) at 21 and 25; phosphodiester [7,11,21,25]
# B6: MTC-432 (structured_DNA)
# DNA: B2 DNA
# modifications: deoxy-zebularine at 21 and 25; PS backbone [21,25]
# B7: MTC-422 (structured_DNA)
# DNA: B2 DNA
# modifications: 5-aza-5,6-dihydro-dC at 21 and 25; phosphodiester [21, 25 (5-aza-5,6-dihydro-dC)]
# B8: MTC-429 (dsDNA)
# DNA 1: GTACATGCGCTCCAGA
# DNA 2: TCTGGAGCGCATGTAC
# modifications: 5-aza-5,6-dihydro-dC at 8 of F strand; 5mC at 8 of R strand; phosphodiester [F strand: 8; R strand: 8]
# Columns and labels:
# DNMT3A [1] = target: T1, DNMT3A (Homo sapiens, UniProt Q9Y6K1 Q9Y6K1:1-912); experiment: inhibition; 25 nM DNMT3A, lambda DNA substrate, 1 uM SAM
# T1 sequence (Q9Y6K1 whole entry, one chain of several): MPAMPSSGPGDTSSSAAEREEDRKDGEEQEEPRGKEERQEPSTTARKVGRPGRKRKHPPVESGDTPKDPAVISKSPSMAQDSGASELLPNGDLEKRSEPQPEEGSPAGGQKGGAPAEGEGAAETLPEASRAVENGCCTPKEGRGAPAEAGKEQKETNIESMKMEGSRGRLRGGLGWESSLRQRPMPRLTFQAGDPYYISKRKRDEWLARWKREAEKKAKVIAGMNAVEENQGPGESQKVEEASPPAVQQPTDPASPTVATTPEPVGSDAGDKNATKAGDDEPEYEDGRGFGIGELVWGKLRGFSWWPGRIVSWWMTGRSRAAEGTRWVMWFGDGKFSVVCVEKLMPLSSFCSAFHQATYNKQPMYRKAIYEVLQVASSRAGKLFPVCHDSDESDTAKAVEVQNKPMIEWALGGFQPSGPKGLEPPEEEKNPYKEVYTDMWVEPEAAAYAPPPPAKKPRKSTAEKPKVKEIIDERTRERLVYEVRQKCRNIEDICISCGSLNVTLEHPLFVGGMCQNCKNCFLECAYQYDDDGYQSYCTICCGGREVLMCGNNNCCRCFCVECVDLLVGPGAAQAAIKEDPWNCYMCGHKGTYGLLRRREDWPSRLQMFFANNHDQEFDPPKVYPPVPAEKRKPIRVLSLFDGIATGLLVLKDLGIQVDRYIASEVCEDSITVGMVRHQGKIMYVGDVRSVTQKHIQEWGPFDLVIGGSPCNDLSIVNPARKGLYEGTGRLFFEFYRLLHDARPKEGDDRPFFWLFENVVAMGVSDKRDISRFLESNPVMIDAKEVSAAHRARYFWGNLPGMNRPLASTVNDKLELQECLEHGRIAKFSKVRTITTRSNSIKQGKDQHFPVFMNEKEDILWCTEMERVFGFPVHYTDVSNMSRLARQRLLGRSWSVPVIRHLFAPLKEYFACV
# DNMT3B (DNMT3b1) [2] = target: T2, DNMT3B (DNMT3b1) (Homo sapiens, UniProt Q9UBC3 Q9UBC3:1-853); experiment: inhibition; tritiated methyl incorporation from SAM; IC50 not estimable in Table 4
# DNMT1 [3] = target: T3, DNMT1 (Homo sapiens, UniProt P26358 P26358:1-1616); experiment: inhibition; 25 nM DNMT1, poly(dI:dC) substrate, 1 uM SAM; table header cites SEQ 5 and 6 but oligo is MTC-424F/R; Table 5 gives 1.43 uM
# T3 sequence (P26358 whole entry, one chain of several): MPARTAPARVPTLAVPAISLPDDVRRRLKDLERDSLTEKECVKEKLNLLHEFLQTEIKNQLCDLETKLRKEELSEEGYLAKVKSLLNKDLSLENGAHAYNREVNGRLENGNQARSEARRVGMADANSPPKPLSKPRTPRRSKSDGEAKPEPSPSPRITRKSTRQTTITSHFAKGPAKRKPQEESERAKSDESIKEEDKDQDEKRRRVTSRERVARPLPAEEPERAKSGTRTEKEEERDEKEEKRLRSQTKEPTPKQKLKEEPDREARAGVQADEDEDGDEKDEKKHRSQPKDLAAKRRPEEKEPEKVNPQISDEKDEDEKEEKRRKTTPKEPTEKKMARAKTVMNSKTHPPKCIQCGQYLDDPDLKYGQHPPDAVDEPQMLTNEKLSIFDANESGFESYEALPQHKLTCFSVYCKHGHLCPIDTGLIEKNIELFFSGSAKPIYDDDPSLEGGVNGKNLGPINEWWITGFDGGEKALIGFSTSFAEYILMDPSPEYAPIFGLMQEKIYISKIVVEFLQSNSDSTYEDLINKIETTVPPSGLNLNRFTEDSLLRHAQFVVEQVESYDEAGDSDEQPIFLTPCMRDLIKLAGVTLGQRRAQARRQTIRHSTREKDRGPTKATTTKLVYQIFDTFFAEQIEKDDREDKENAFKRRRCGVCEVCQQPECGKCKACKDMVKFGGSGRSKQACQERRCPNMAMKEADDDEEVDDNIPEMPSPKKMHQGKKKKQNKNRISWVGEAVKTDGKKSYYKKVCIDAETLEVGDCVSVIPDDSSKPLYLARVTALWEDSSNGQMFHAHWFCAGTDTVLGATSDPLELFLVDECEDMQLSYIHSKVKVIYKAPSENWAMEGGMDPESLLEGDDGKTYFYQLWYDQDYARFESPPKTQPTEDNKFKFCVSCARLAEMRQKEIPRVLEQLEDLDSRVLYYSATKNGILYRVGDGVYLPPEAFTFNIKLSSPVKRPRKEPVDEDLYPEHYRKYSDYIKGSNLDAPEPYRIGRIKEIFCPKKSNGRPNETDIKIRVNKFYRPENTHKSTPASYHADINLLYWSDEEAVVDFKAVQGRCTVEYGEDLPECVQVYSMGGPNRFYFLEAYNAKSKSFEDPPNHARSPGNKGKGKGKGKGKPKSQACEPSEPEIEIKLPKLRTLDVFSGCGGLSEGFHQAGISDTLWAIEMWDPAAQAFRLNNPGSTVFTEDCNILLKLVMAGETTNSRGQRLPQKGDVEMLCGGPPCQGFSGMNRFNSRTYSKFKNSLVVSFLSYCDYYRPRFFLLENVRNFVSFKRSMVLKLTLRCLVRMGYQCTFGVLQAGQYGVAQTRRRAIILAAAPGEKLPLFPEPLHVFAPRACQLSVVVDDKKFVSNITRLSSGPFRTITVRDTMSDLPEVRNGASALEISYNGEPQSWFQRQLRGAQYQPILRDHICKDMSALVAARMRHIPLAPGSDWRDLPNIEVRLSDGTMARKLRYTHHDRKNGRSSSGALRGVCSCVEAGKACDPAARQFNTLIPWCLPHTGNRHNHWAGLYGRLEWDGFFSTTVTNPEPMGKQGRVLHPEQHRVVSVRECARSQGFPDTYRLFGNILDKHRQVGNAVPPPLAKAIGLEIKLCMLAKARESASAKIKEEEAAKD
# Protocol: (§1) DNA Methyltransferase 1 (DNMT1) was essentially assayed as described in Tollefsbol, T. O. and Hutchison III, C. A.: J. Biol. Chem. (1995), 270:18543-50 with the following modifications. Assay reaction was 5 μl volume, the DNA substrate was poly (dI:dC) 0.001 mg/ml and co-factor S-AdoMet at 1.0 μM; human DNMT1 was added at 25 nM. Reaction: S-adenosyl-L-[methyl-3H] methionine+DNA=S-adenosyl-L-homocysteine+DNA 5-[methyl-3H]-cytosine. S-AdoHCy was used as a positive control for the inhibition reaction.
# DNMT1 [4] = target: T3, DNMT1; experiment: inhibition; tritiated methyl incorporation from SAM
# DNMT3A [5] = target: T1, DNMT3A; experiment: inhibition; 25 nM DNMT3A, lambda DNA substrate, 1 uM SAM; Table 5 gives 1.5 uM
# DNMT1 [6] = target: T3, DNMT1; experiment: inhibition; 25 nM DNMT1, poly(dI:dC) substrate, 1 uM SAM; Table 5 gives 348 nM; settings: hairpin
# Protocol: as §1
# DNMT3B (DNMT3b1) [7] = target: T2, DNMT3B (DNMT3b1); experiment: inhibition; 25 nM DNMT3B, lambda DNA substrate, 1 uM SAM; Table 5 gives 18.9 uM
# DNMT3B (DNMT3b1) [8] = target: T2, DNMT3B (DNMT3b1); experiment: inhibition; tritiated methyl incorporation from SAM
# DNMT3A [9] = target: T1, DNMT3A; experiment: as above
# DNMT1 [10] = target: T3, DNMT1; experiment: inhibition; 25 nM DNMT1, poly(dI:dC) substrate, 1 uM SAM; Table 5 gives 5.52 uM; settings: hairpin
# Protocol: as §1
# DNMT3B (DNMT3b1) [11] = target: T2, DNMT3B (DNMT3b1); experiment: inhibition; 25 nM DNMT3B, lambda DNA substrate, 1 uM SAM
binder,measurement,setting,value
B1,IC50,DNMT3A [1],10200 nM
same,IC50,DNMT3B (DNMT3b1) [2],> 100000 nM
same,IC50,DNMT1 [3],1940 nM
B2,IC50,DNMT1 [4]; hairpin,4.22 nM
B3,IC50,DNMT3A [5],1600 nM
same,IC50,DNMT1 [6],363 nM
same,IC50,DNMT3B (DNMT3b1) [7],17500 nM
B4,IC50,DNMT1 [4]; hairpin,504 nM
same,IC50,DNMT3B (DNMT3b1) [8],> 100000 nM
same,IC50,DNMT3A [9],6690 nM
B5,IC50,DNMT1 [4]; hairpin,295 nM
same,IC50,DNMT3B (DNMT3b1) [8],6200 nM
same,IC50,DNMT3A [9],1520 nM
B6,IC50,DNMT1 [4]; hairpin,8.3 nM
B7,IC50,DNMT3A [1],5700 nM
same,IC50,DNMT1 [10],1430 nM
same,IC50,DNMT3B (DNMT3b1) [11],21300 nM
B8,IC50,DNMT1 [4],906 nM
same,IC50,DNMT3A [9],> 50000 nM
